Results reported in patent US20110293610A1 (published 2011).
Substitutions are numbered along the chain they refer to.

B1: I082B08 (scFv)
scFv: QVQLVQSGAEVKKPGGSVKVSCKASAYTFTRYYMHWVRQAPGQGLEWMGIINPSGGRTSYAQKFQGRVTMTRDTSTSTVYMELSSLRSEDTAVYYCARDLGIAGTIYFDYWGKGTLVTVSSGGGGSGGGGSGGGGSQSVLTQPPSVSAAPGQKVTISCSGSTSNIGNNYVSWYQQHPGKAPKLMIYDVSKRPSGVPDRFSGSKSGNSASLDISGLQSEDEADYYCAAWDDSLSEFLFGTGTKLTVLG
B2: I079F06 (scFv)
scFv: QVQLVESGGGLVQPGGSLRLSCAASGFTFSSYWMSWVRQAPGKGLEWVANIKQDGSEKYYVDSVKGRFTISRDNAKNSLYLQMNSLRAEDTAVYYCARDNLHAAFDIWGRGTLVTVSGGGGGSGGGGSGGGGSDIQMTQSPSTLSASIGDRVTITCRASEGIYHWLAWYQQKPGKAPKLLIYKASSLASGAPSRFSGSGSGTDFTLTISSLQPDDFATYYCQQYSNYPLTFGGGTKLEIKR
B3: I082A05 (scFv)
scFv: QVQLQQSGGGVVQPGRSLRLSCAASGFTYSSYAMHWVRQAPGKGLEWVAVISYDGSIKYYADSVKGRFTISRDNSKNTLYLQMNSLRAEDTAVYYCARDLDFDYWGKGTLVTVSSGGGGSGGGGSGGGGSQSVLTQPPSVSAAPGQKVTISCSGSTSNIGNNYVSWYQQHPGKAPKFMIYDVSKRPSGVSNRFSGSKSGNTASLTISGVQAEDEADYYCSSYTSASTVIFGGGTKLTVLG
B4: I082G01 (scFv)
scFv: QMQLVQSGAEVKKPGASVKVSCKASGYTFTSYYMHWVRQAPGQGLEWMGLVHPNDGSVNYAQKFKGRVTMTRDTSTSTVYMELSSLRSDDTAVYYCARDRGSGWPNWYFDLWGQGTLVTVSSGGGGSGGGGSGGGGSDIQMTQSPSTLSASIGDRVTITCRASEGIYHWLAWYQQKPGKAPKLLIYKASSLASGAPSRFSGSGSGTDFTLTISSLQPDDFATYYCQQYSNYPLTFGGGTKLEIKH
B5: I080G09 (scFv)
scFv: QVQLVQSGAEVKKPGASVRVSCKSSGYTFTNYGISWVRQAPGQGLEWMGWISNNNGKTYYAQKVQGRVTMTTDTSTSTDYMELRGLRSDDTAIYYCARDNGGGTIGFDYWGQGTLVTVSSGGGGSGGGGSGGGGSAQSVLTQPPSVSGAPGQRVTISCTGSSSNIGADYDVHWYQLLPGTAPKLLIYGNTNRPSGVPDRFSGSKSGTSASLTIAGLQAEDEADYYCQSYDSSLSGSVVFGGGTKLTVLG
B6: I079B05 (scFv)
scFv: GVQLVESGGGLVKPGGSLRLSCATSGFRFSDYAMTWVRQAPGKGLEWVSSITGSGGGTHYAGSVRGRFTISRDNSKNTVYLQMNNLRPEDTAVYYCASFVLDYWGKGTLVTVSSGGGGSGGGGSGGGGSQSVLTQPASVSGSPGQSITISCTGTSSDVGGYNYVSWYQQHPGKAPKLMIYEGSKRPSGVSNRFSGSKSGNTASLTISGLQAEDEADYYCSSYTTRSTRVFGGGTKLTVLG
B7: I083B12 (scFv)
scFv: QVQLVQSGAEVKKPGASVKVSCKASEYTFYNHYMHWVRQAPGQGLEWMGFINPSGDAAWYAQKFQGRVTLTRDTSTRTVYMELSGLTSEDTAVYYCARESGAGGYYYDDYWGKGTLVTVSSGGGGSGGGGSGGGGSALSYVLTQPPSVSVAPGKTASIPCGGNNIGSKSVQWYLQKAGQAPILVVYDDSDRPSGIPERFSGSNSGNTATLTITRVEAGDEADYYCQVWDSSSDHWFFGGGTKLTVLG
B8: I084C04 (scFv)
scFv: VQLVQSGAEVKKPGASVKVSCKASGYTFTSYGISWVRQAPGQGLEWMGWINPNSGGTNYAQKFQGRVTMTRDTSISTAYMELSRLRSDDTAVYYCARNLWGLDYWGKGTMVTVSSGGGGSGGGGSGGGGSSELTQDPAVSVALGQTVRITCQGDSLRSYYASWYQQKPGQAPVLVIYGKNNRPSGIPDRFSGSSSGNTASLTITGAQAEDEADYYCNSRDSSGNHVVFGGGTKLTVLG
B9: I080E05 (scFv)
scFv: EVQLVQSGAAVKKPGASVKVSCKASGYTFTTYYIHWVRQAPGQGLEWMGIINPVNGNTIYAQKFQGRVTMTRDTSTGTVNMELSSLRSEDTAVFYCVREGGGDAYDVAPYYFDYWGQGTLVTVSSGGGGSGGGGSGGGGSAQAVLTQPSSVSGAPGQRVTISCTGSSSNIGDGYDVHWYQQLPGTAPKLLIYGNSHRPSGVPDRFSGSKSDTSASLAITGLQVEDEADYFCHSYDSSVSGWIFGGGTKLTVLG
B10: I080G07 (scFv)
scFv: QVQLVQSGAEVKKPGASVKVSCKASGYTFTSYAMHWVRQAPGQRLEWMGWINAGNGNTKYSQKFQGRVTITRDTSASTAYMELSSLRSEDTAVYYCAREGPGYYYGMDVWGQGTMVTVSSGGGGSGGGGSGGGGSALETTLTQSPGTLSLSPGERATLSCRASQAIGSNYLAWYQQKPGQPPSLLIYGASSRATGIPDRFSASGSGTDFTLTISRLEPEDFAVYYCQQYGSSITFGQGTRLEIKR
B11: I079B12 (scFv)
scFv: EVQLVQSRGGVVQPGRSLRLSCAASGLTFSSYGMHWVRQAPGKGLEWVAVISYDGRNKYYADSVKGRFTTSRDNSKNTLYLQMNSLRAEDTAVYYCAKWTSSGAFDIWGRGTLVTVSSGGGGSGGGGSGGGGSDIQMTQSPSTLSASIGDRVTITCRASEGIYHWLAWYQQKPGKAPKLLIYKASSLASGAPSRFSGSGSGTDFTLTISSLQPDDFATYYCHQYSNYPLTFGGGTKLEIKR
B12: I082D07 (scFv)
scFv: B11 scFv with H222Q
B13: I084A01 (scFv)
scFv: QVQLVQSGGGLVQPGGSLRLSCAASGFTFSSYEMNWVRQAPGKGLEWVSYISSSGSTTYYADSVKGRFTISRDNAKNSLYLQMNSLRAEDTAVYYCARDTTDYWGQGTMVTVSSGGGGSGGGGSGGGGSQSVLTQPPSASGTPGQRVTISCSGSSSNIGSNTVNWYQRLPGAAPQLLIYNNDQRPSGIPDRFSGSKSGTSGSLVISGLQSEDEADYYCASWDDSLNGRVFGGGTKLTVLG
B14: I080D03 (scFv)
scFv: QVQLVQSGAELKQPGTSVKVSCKASGYSFSSYGVTWVRQAPGQGLEWMGWVSGNRGNTQYAQKFQDRVRMTTDTSTSTAYMELRSLRPDDTAVYFCARVGIKAAAVDNFEYWGRGTTVTVSSGGGGSGGGGSGGGGSAQSVLTQPPSASGTPGQRVTITCSGSSSNIGDYYVNWYQQVSGTTPKLIIYRDDQRPSGVPDRFSGSKSGASASLAISGLRSEDEANYFCAAWDDSLREFAFGTGTKVTVLG
B15: I083G03 (scFv)
scFv: B14 scFv with A92D
B16: I080A03 (scFv)
scFv: QVQLQQSGAELKQPGTSVKVSCKASGYSFSCYDVNWVRQAPGQGLEWMGRINPNSGNTHYAQKFQDRVTMTTDTSTSTAYMELNSLRPDDTAVYFCARVGIKAAAVDNFEYWGRGTTVTVSSGGGGSGGGGSGGGGSAQSVLTQPPSASGTPGQRVTITCSGSSSNIGDYYVNWYQQVSGTTPKLIIYRDDQRPSGVPDRFSGSKSGASASLAISGLRSEDEANYFCAAWDDSLREFAFGTGTKVTVLG
B17: I084C11 (scFv)
scFv: GVQLEESGAEVKKPGASVKVSCKASGYTFTGYYMHWVRQAPGQGLEWMGWINPNSGGTNYAQKFQGRVTMTRDTSISTAYMELSRLRSDDTAVYYCARGNAWGAFDIWGRSTLVTVSSGGGGSGGGGSGGGGSQSVLTQPASVSGSPGQSITISCTGTSSDVGGYNYVSWYQQHPGKAPKLMIYEGSKRPSGVSNRFSGSKSGNTASLTVSGLQAEDEADYYCSSYTTRSTRVFGGGTKLTVLG
B18: I080G07 (scFv)
scFv: B10 scFv

molecular target: T1, HIS-tagged B Lymphocyte Stimulator (human, UniProt Q9Y275 71-285); assay: BIAcore, periplasmic scFv on high density HIS-BLyS surface
T1 construct: Expressed in E. coli from pQE9 and purified; also called histidine-tagged B Lymphocyte Stimulator; HIS-B Lymphocyte Stimulator; not shown: histidine tag of the pQE9 vector
Experimental: (§1) All BIAcore analysis was performed on BIAcore 2000 machines, using the BIAcore 2000 control software and evaluated using the BIAevaluation 3.0 software. A high density His-tagged B Lymphocyte Stimulator surface (>1000 RU HIS-B Lymphocyte Stimulator coupled) was prepared in flow cell 2 by amine coupling to a CM5 chip. A new CM5 chip was inserted into the BIAcore and a sensorgram started over flow cell 2 with HBS buffer at a flow rate of 5 μl/min. The NHS and EDC solution were mixed 1:1 before injecting 30 μl over the CM5 surface. Fifty μl HIS-B Lymphocyte Stimulator (at 10 μg/ml in Sodium acetate buffer, pH4) was injected and allowed to couple to the surface. Thirty μl of ethanolamine-HCl solution was then injected to block free NHS esters. Prior to using the chip, 10 μl of 4M Guanidine hydrochloride in HBS was injected over the surface to strip the surface of non-covalently bound B Lymphocyte Stimulator. A blank surface (no HIS-B Lymphocyte Stimulator) was also prepared over flow cell 1 so that non-specific binding effects can be subtracted from the HIS-B Lymphocyte Stimulator binding curves.
(§2) The 96-well plate containing periplasmic scFvs was secured inside the BIAcore. Two ml of 4M Guanidine hydrochloride in HBS was placed in a rack inside the BIAcore for regeneration of the HIS-B Lymphocyte Stimulator surface between samples. The sensorgram was run over flow cells 1 and 2 at a flow rate of […].
T1 sequence (Q9Y275 71-285): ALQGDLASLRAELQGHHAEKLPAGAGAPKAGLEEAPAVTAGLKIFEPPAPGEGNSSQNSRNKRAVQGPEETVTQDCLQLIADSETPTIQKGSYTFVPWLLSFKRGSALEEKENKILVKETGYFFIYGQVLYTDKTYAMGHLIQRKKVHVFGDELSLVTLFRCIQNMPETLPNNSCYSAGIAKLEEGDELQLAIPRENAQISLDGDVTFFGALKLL

Binding result, binds:
B1
B2
B3
B4
B5
B6
B7
B8
B9
B10
B11
B12
B13
B14
B15
B16

molecular target: T2, HIS-tagged B Lymphocyte Stimulator (human, UniProt Q9Y275 71-285); assay: BIAcore, periplasmic scFv over high density HIS-BLyS surface
T2 construct: Expressed in E. coli; also called HIS-B Lymphocyte Stimulator; histidine-tagged B Lymphocyte Stimulator; not shown: histidine tag from the pQE9 vector
Experimental: as §1, §2
T2 sequence (Q9Y275 71-285): as above

Binding result, binds:
B17
B18
